# Ends that are not written are not given here.
# T1: peptide 121 (human)
# T1 peptide: Ac-TETSRSITTSPKE
# T2: peptide 108 (human)
# T2 peptide: Ac-EPPSSVAEFSEAT
# T3: peptide 39 (human)
# T3 peptide: Ac-AMKRSLAGRYRCS
# T4: peptide 50 (human)
# T4 peptide: Ac-PSDQLELVATGVF
# T5: peptide 34 (human)
# T5 peptide: Ac-YQDQAVLFIPAMK
# B1: monoclonal antibody hGP 5C4 (antibody, V domains shown)
# VH: EVKLQESGGGLVQPGRSLKLSCTASGFTFSDYFMSWVRQAPTRGLEWVASISSGGASAYWRDSVKGRFTISRDNAKSALYLQMDSLRSEDTATYFCARGELDFDYWGQGVMVAVSS
# VL: ADPNSTLLSASVGDRVTLNCTASQNVYKNLAWYQQKLGEAPRLLLYSANSQTGIPSRFSGSGSGPDFTLTISSLQPEDVASYFCQQYYSGNTFGAGTKLELKR
# notes: Rat hybridoma antibody (Lou/C rats), heavy chain gamma 2a, light chain kappa; also called ab 5C4; anti-GPVI mAb 5C4
# Key:
# Experiment in all cases: PepSpot peptide array
# [1] = target: T1, peptide 121
# How it was run: (§1)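 Peptides synthesized on cellulose membranes were blocked, then probed with a primary antibody followed by an HRP-labelled secondary, or with an HRP-labelled primary alone. After T-TBS/TBS washes, chemiluminescence was recorded as light units per peptide as single measurements. A secondary-only incubation served as the non-specific binding control.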
# [2] = target: T2, peptide 108
# How it was run: as §1
# [3] = target: T3, peptide 39
# How it was run: as §1
# [4] = target: T4, peptide 50
# How it was run: as §1
# [5] = target: T5, peptide 34
# How it was run: as §1
binder,measurement,setting,value
B1,LU (Light Units),[1],186 LU
same,LU (Light Units),[2],12 LU
same,LU (Light Units),[3],134 LU
same,LU (Light Units),[4],38 LU
same,LU (Light Units),[5],125 LU
